# Numbering of substitutions follows the chain as printed.
# B1: ADI-50535 (antibody, V domains shown)
# VH: QVQLVQSGAEVKKPGASVKVSCKASGYTFTSYGISWVRQAPGQGLEWMGWISAYNGNTNYAQKLQGRVTMTTDTSTSTAYMELRSLRSDDTAVYYCARRPYYYGSRRPAGHMDVWGQGTTVTVSS
# VL: NFMLTQPHSVSESPGKTVTISCTRSSGSIASNYVQWYQQRPGSSPTTVIYEDNQRPSGVPDRFSGSIDSSSNSASLTISGLKTEDEADYYCQSYDSSNVVFGGGTKVTVL
# notes: full-length IgG; also called Antibody Number 78
# B2: ADI-48908 (antibody, V domains shown)
# VH: EVQLLESGGGLVQPGRSLRLSCAVSGFTFAEYAMHWVRQAPGKGLEWVSSISWNSGRIGYVDSVRGRFTISRDNAKNSLYLQMNSLRVEDTAFYYCAKGYDSSGYYWADYWGQGTLVTVSS
# VL: EIVMTQSPATLSVSPGERATLSCRASQSVSFNLAWYQQKPGQAPRLLISRASTRAAGVPARFSGSGSGTEFTLTISSLQSEDFAVYYCQQYNNWPPLTFGGGTKLEIK
# notes: full-length IgG; also called Antibody Number 59
# B3: ADI-49561 (antibody, V domains shown)
# VH: EVQLLESGGGVVQPGRSLRLSCVASGFTFSSYGMHWVRQAPGKGLEWVALISYDGSNKYYADSVKGRFTISRDNSKNTLYLQMNSLRAEDTAVYYCAKDQCGGDCTADYWGQGTLVTVSS
# VL: QSVLTQPASVSGSPGQSITISCTGTSSDVGGDKYVSWYQQHPGKAPKPMIYEVSNRPSGVSNRFSGSKSGNTASLTISGLQAEDEADYYCSSYTSSSTPVVFGGGTKLTVL
# notes: full-length IgG; also called Antibody Number 76
# B4: ADI-42231 (antibody, V domains shown)
# VH: QVQLVQSGAEVKKPGASVKVSCKASGYSFTTYGISWVRQAPGQGLEWMGWISGYSGDTNYAQKVQGRVTMTTDTSTSTAYMELRSLRSDDTAVYYCARDQSHGTFGGVIDSTTLFYYYGMDVWGQGTTVTVSS
# VL: DIVMTQSPATLSLSPGERATLSCRASQSVSSYLAWYQQKPGQAPRLLIYDASNRATGIPARFSGSGSGTDFTLTISSLEPEDFAVYYCQQRSNWPSFGQGTKLEIK
# notes: full-length IgG; also called Antibody Number 64
# B5: ADI-49040 (antibody, V domains shown)
# VH: EVQLVESGGALVHPGGSLGLSCAASGFTFSDHYMDWVRQAPGKGLEWVGRIRNKPNSYATQYAASVKGRFTISRDDSKKSLYLQMNSLNTEDTAVYYCARVRDGEYDYWGQGTLVTVSS
# VL: DIQMTQSPSTLSASVGDRVTITCRASQSISTWLAWYQLKPGKAPKLLIYKASNLQSGVPSRFSGSGSGTEFTLTISSLQPDDFATYYCQQYNSYSPWGQGTKLEIK
# notes: full-length IgG; also called Antibody Number 74
# B6: ADI-46722 (antibody, V domains shown)
# VH: EVQLVESGPGLVKPSGTLSLTCAVSGGSISSSNWWSWVRQPPGKGLEWIGEIYHSESTNYNPSLKSRVTISVDKSKNQFSLKLSSVTAADTAVYYCARDFWSGSNWFDPWGQGTLVTVSS
# VL: QSALIQPPSVSAAPGQKVTISCSGSSSNIGNNYVSWYQQLPGTAPKLLIYDNNKRPSGIPDRFSGSKSGTSATLGITGLQTGDEADYYCGTWDNSLGVVFGGGTQLTVL
# notes: full-length IgG; also called Antibody Number 71
# B7: ADI-49145 (antibody, V domains shown)
# VH: EVQLLESGGGLVQPGGSLRLSCAASGFIFSDYYMDWVRQTPGKGPEWVGRITNRPNSYTTEYAASVKGRFTISRDDSTNSLFLHMNSLKTEDTAVYYCTRITGDRYWYLDLWGRGTLVTVSS
# VL: DIVLTQSPSSLSASVGDRVTITCRASQSINNYLNWYQQKPGKAPNLLIFGASTLQSGVPSRFTGSGSGTVFTLTISSLQRDDFVIYYCQQTYSASGSFGQGTKVEIK
# notes: full-length IgG; also called Antibody Number 69
# B8: ADI-45164 (antibody, V domains shown)
# VH: EVQLQESGPGLVKPSETLSLTCTVSGGSISSSSYYWGWIRQPPGKGLEWIGSIYYSGSTYYNPSLKSRVTISVDTSKNQFSLKLSSVTAADTAVYYCARGYCSSTSCFYYYYGMDVWGQGTTVTVSS
# VL: not shown
# notes: full-length IgG; also called Antibody Number 65
# B9: ADI-49168 (antibody, V domains shown)
# VH: EVQLLESGGGLVQPGGSLRLSCAASGFTFSSYAMSWVRQATGRGLEWVSSIRSSGGRTEYADSVKGRFTISRDNSKNTLYLQMDSLRAEDTALYYCAKHYDSSGYYYEDYWGQGTLVTVSS
# VL: DIVLTQSPSTLSASVGDRVTITCRASQSISDWLAWYQQKPGKAPGLLIYRASGLESGVPSRFSGSGSGTEFTLTISSLQPDDFATYYCHQYKDFPWTFGQGTKVDIK
# notes: full-length IgG; also called Antibody Number 73
# B10: ADI-42199 (antibody, V domains shown)
# VH: EVQLVESGGGLVQPGGSLRLSCAASGFTFSDHYMAWVRQAPGKGLEWVGRIRNKPNSYTTEYAASVKGRFTISRHDSENSLYLQMNSLKTEDTAVYYCCRESGEGFDPWGQGTLVTVSS
# VL: SYELTQLPSVSVSPGQTARVTCSGDALQYVYWYQQKPGQAPVVVIYKDTERPSGIPERFSGSSSGTTVTLTITGVQAEDEADYYCQSADRSGSVIFGGGTKVTVL
# notes: full-length IgG; also called Antibody Number 63
# B11: ADI-46729 (antibody, V domains shown)
# VH: EVQLVESGPGLVKPSQTLSLTCTVSGGSISSGSYYWSWIRQPAGKGLEWIGRIYTSGSTNYNPSLKSRVTMSVDTSKNQFSLKLSSVTAADTAVYYCARGWFGYSNYGLYYYYGMDVWGQGTTVTVSS
# VL: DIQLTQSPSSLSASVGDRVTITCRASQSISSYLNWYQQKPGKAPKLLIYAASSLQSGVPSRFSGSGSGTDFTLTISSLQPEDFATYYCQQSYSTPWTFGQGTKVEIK
# notes: full-length IgG; also called Antibody Number 70
# B12: ADI-49133 (antibody, V domains shown)
# VH: EVQLLESGGGLVQPGGSLRLSCAASGFTFRNYAMNWVRQTPGKGLEWVSGISGGGDSTNYADSVKGRFTISRDNSRNTLYLQLNSLRAEDTAVYYCAKDLAVSTPRYWFDSWGQGTLVTVSS
# VL: DIQMTQSPSSLSASVGDRVTITCRASQTISVDLNWYQHKPGKAPKLLIFAASTLQSGVPSRFSGSGSGTDFTLTIRSLQPEDFATYYCQQSYSIPRITFGQGTRLEIK
# notes: full-length IgG; also called Antibody Number 6
# B13: ADI-42187 (antibody, V domains shown)
# VH: EVQLLESGGGLVKPGGSLRLSCAASGFTFSSYSMNWVRQAPGKGLEWVSSISSRSSFMYYADSVKGRFTISRDNAKNSLYLQMNSLRVEDTAVYYCARDNSEVEDYGDYVLYHYYGMDVWGQGTTVTVSS
# VL: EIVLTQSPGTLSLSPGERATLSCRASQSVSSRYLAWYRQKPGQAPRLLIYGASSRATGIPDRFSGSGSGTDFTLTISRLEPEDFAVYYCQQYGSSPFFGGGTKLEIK
# notes: full-length IgG; also called Antibody Number 75
# B14: ADI-48913 (antibody, V domains shown)
# VH: EVQLLESGPGLVKPSETLSLTCTVSGGSISSYYWSWIRQPAGKGLELIGRIYTSGSGNYNPSLKRRVTMSVDTSKNQISLRLNSVTAADTAVYYCARERGGYFTEPFDIWGQGTMVTVSS
# VL: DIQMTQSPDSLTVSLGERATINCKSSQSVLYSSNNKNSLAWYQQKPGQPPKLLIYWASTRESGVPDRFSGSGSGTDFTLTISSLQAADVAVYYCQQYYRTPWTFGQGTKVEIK
# notes: full-length IgG; also called Antibody Number 60
# B15: ADI-50211 (antibody, V domains shown)
# VH: EVQLVESGGGLVQPGGSLRLSCAASGFTFSAYAMSWVRQAPGRGLEWVSAISGSDRRIYYADSVKGRFSISRDNSKNTLYLQMSSLRAEDTAVYYCAKYYDSSGYYYLDYWGQGTLVTVSS
# VL: DIQLTQSPSTLSASVGDRVTITCRASQSVSSWLAWYQQKPGKAPRLLIYRASSLESGVPSRFSGSGSGTEFTLTISSLQPDDFAAYYCQQYNRDPYTFGQGTKVEIK
# notes: full-length IgG; also called Antibody Number 62
# B16: ADI-48899 (antibody, V domains shown)
# VH: EVQLVESGGGLVQPGGSLRLSCAASGFIYTNYAMYWVRQAPGKGLEWVSAISGSGGITYYADSVKGRFTISRDNSKNTLYLQMNSLRAEDKAVYYCAKDGVTTINGWFHFEYWGQGTLVTVSS
# VL: B15 VL with L4M, V29I, R45K, R50Q, G66E, A85T, R93S, D94F, Y96F, Q100P
# notes: full-length IgG; also called Antibody Number 68
# B17: ADI-42233 (antibody, V domains shown)
# VH: EVQLVESGGGLVKPGGSLRLSCVASGFTFSRYSMNWVRQAPGKGLEWVSSISHSGRYIYYADSEKGRFTISRDNAKNSLYLQMNSLRAEDTAVYYCARDHYFDSSGDYLSYYYNGMDVWGQGTTVTVSS
# VL: ETTLTQSPGTLSLSPGERATLSCRASRSVSGNYLAWYQQKPGQAPRLLIYAASSRATGIPDRFSGGGSGTHFTLTISRLEPEDFAVYYCQQYGSSPRAFGQGTKVEIK
# notes: full-length IgG; also called Antibody Number 66
# B18: ADI-45148 (antibody, V domains shown)
# VH: EVQLLESGGGLVQPGRSLRLSCAASGFTFDDYAMHWVRQAPGKGLEWVSGISWNSGSIGYADSVKGRFTISRDNAKNSLYLQMNSLRAEDTALYYCAKDIGDSYGSGSYYLPYGAYYGMDVWGQGTTVTVSS
# VL: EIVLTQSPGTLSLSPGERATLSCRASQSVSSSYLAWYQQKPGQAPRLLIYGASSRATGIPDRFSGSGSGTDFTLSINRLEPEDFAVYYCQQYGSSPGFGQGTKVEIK
# notes: full-length IgG; also called Antibody Number 72
# B19: ADI-42219 (antibody, V domains shown)
# VH: QVQLVESGGGVVQPGRSLRLSCAASGFTFSSLAMHWVRQAPGKGLEWVATISYDVSNKYYADSVKGRFTISRDNSKNTLFLQMNSLRPEDTAVYYCARGYTGYDGFDYWGQGTLVTVSS
# VL: QPVLTQPRSVSGSPGQSVTISCTGTSSDVGGYNYVSWYQQHPGKAPKLMISDVSKRPSGVPDRFSGSKSGNTASLTISGLQADDEADYYCCSYATNYGVVFGGGTKVTVL
# notes: full-length IgG; also called Antibody Number 77
# B20: ADI-42191 (antibody, V domains shown)
# VH: EVQLVESGGGLVQPGGSLRLSCAASGFTFSDHYMDWVRQAPGKGLEWVGRTRNKPNSHTTEYAASVKGRFTISRDDSKNSLYLQMNSLQTEDTAVYYCARVYGGPDDYWGQGTLVTVSS
# VL: EIVMTQSPSSLSASVGDRVTITCRASQSIRSYLNWYQQKPGKAPKLLIYAASSLQSGVPLRFSGSGSGTDFTLTISSLQPEDFATYYCQQSSITPPTFGQGTKLEIK
# notes: full-length IgG; also called Antibody Number 67
# B21: ADI-45140 (antibody, V domains shown)
# VH: EVQLLESGGGLVHPGGSLRLSCAASGFTFSDYEMNWVRQAPGKGLEWVSHISSSGNIIYYADSVKGRFTISRDNAKDSLYLQMNSLRAEDTAVYYCAATIFGVVSFDYWGQGTLVTVSS
# VL: QSVLTQPPSVSAAPGQKVTISCSGSSSNIGNNYVSWYQQLPGTAPKVLIYDNNKRPSGIPDRFSGSKSGTSATLGITGLQTGDEADYYCGTWDSALGAAVFGGGTKLTVL
# notes: full-length IgG; also called Antibody Number 61
# B22: ADI-49033 (antibody, V domains shown)
# VH: EVQLVESGGGLVQPGGSLRLSCAASGLIFRNYAMSWVRQAPGKGLEWVSSFSGSGGSAYYADSVKGRFTISRDNSKSTVYLQMNRLRVEDTAVYYCAKDMAVSVHRGWFDDWGQGTLVTVSS
# VL: EIVMTQSPSALSASVRDRVTITCRASQSIGSDLNWYQQRPGKAPMLLIYAATGLQSGVPSRFSGSGSGTDFTLTISNLQPEDFATYYCQQSYSPPMYTFGQGTKVDIK
# notes: full-length IgG; also called Antibody Number 7
# B23: ADI-42211 (antibody, V domains shown)
# VH: QVQLVESGGGVVQPGRSLRLSCGGSGFTFSSYGMHWVRQAPGKGLEWVAVISYDGSKKYSADSVKGRFTISRDNSKNTLYLQMNSLRAEDTAVYYCAKGSVSVAGAEDYWGQGTLVTVSS
# VL: DIQMTQSPSSLSASVGDRVTITCRASQGISSYLAWFQQKPGKVPKLLIYAASTLQSGVPSRFSGSGSGTDFTLTISSLQPEDVATYYCQKYNSAPQTFGQGTKVDIK
# notes: full-length IgG; also called Antibody Number 58
# Molecular target: T1, recombinant YFV E protein (soluble E, sE; YFV Asibi strain) (Yellow fever virus, Asibi strain, UniProt Q6DV88 286-678)
# T1 construct: also called YFV E antigen; YFV E monomer
# Assay: BLI monovalent (IgG on tip)
# T1 sequence (Q6DV88 286-678): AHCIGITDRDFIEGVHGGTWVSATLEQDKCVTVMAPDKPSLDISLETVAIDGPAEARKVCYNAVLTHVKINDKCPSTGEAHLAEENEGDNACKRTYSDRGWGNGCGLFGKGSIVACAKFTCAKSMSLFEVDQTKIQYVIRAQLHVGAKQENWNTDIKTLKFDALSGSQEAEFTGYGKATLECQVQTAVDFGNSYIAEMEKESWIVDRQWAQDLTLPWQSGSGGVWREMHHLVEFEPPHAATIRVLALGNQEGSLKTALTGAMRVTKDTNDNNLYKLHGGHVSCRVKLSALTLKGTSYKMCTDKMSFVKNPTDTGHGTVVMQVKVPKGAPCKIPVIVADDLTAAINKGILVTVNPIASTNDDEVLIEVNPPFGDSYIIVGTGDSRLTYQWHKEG
row,Binder,Kd [nM]
1,B1,> 100
2,B2,1.76
3,B3,242
4,B4,42.1
5,B5,0.999
6,B6,> 100
7,B7,1.05
8,B8,> 100
9,B9,24.1
10,B10,0.7
11,B11,> 100
12,B12,6.91
13,B13,4.01
14,B14,186
15,B15,20.8
16,B16,434
17,B17,2.98
18,B18,> 100
19,B19,4.05
20,B20,2.13
21,B21,4.6
22,B22,18
23,B23,1.64
